Assay results taken from article PMC12581942, “EIN3-binding F-box protein SlEBF3 modulates resistance against Botrytis cinerea and carotenoid biosynthesis by degradation of BBX20 in tomato”.

Molecular target: SlTAGL1-His (Solanum lycopersicum, UniProt E9JUM2 1-269)
Assay: EMSA; not given; Beyotime EMSA/Gel-Shift kit and Thermo LightShift Chemiluminescent EMSA kit
Conditions: protein: recombinant; tags: His (pET28a); chain copies: 2; label: biotin 3'; blunt

SlTAGL1-His, sequence (E9JUM2 entry or part of it): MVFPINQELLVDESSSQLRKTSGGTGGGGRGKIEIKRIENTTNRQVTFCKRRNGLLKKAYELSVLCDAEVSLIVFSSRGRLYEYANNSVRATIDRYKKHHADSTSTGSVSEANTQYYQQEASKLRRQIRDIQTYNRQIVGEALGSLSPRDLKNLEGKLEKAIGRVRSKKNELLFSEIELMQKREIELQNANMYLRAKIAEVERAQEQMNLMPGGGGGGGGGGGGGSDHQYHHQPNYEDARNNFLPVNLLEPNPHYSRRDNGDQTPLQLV

B1: SlPSY1 promoter probe (dsDNA)
DNA 1: GAATTGAGCACTTGGCTTTTGTATATAGCTTCTATGTGTACCAAAATT
DNA 2: AATTTTGGTACACATAGAAGCTATATACAAAAGCCAAGTGCTCAATTC
B1: binds.
